Changes are numbered by the printed parent chain.

What is called EC50 (read off the curve) is the concentration needed to bring the measured effect to its halfway point. High values mean weaker potency, low ones greater potency.

The chains are these.
B1: Ly742 (bispecific antibody, human IgG1, kappa)
heavy: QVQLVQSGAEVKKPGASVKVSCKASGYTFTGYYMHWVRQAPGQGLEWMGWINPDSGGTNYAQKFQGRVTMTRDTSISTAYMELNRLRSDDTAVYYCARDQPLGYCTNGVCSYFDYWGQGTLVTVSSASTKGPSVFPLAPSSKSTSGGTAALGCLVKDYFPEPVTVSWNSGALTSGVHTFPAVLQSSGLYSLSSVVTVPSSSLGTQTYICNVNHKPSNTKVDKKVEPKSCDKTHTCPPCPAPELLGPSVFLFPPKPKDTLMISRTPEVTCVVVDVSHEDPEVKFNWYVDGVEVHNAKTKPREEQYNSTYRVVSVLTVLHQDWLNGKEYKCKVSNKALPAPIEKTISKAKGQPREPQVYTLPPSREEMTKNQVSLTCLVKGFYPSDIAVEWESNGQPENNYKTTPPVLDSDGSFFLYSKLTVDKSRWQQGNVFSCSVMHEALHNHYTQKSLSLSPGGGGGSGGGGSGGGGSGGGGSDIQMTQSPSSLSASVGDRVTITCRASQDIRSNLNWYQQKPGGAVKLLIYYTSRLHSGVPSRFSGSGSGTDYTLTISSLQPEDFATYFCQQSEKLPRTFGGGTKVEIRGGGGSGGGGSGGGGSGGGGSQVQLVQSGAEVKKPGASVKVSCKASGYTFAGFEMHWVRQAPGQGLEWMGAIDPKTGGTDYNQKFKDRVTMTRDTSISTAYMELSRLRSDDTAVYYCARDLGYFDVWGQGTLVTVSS
light: DIQMTQSPSSVSASVGDRVTITCRASQGIYSWLAWYQQKPGKAPNLLIYTASTLQSGVPSRFSGSGSGTDFTLTISSLQPEDFATYYCQQANIFPLTFGGGTKVEIKRTVAAPSVFIFPPSDEQLKSGTASVVCLLNNFYPREAKVQWKVDNALQSGNSQESVTEQDSKDSTYSLSSTLTLSKADYEKHKVYACEVTHQGLSSPVTKSFNRGEC
notes: Anti-CD40/CD137: Ly253-derived heavy chain fused to Ly1630 scFv (VL-VH); Ly253 light chain
B2: Ly743 (bispecific antibody, human IgG1, kappa)
heavy: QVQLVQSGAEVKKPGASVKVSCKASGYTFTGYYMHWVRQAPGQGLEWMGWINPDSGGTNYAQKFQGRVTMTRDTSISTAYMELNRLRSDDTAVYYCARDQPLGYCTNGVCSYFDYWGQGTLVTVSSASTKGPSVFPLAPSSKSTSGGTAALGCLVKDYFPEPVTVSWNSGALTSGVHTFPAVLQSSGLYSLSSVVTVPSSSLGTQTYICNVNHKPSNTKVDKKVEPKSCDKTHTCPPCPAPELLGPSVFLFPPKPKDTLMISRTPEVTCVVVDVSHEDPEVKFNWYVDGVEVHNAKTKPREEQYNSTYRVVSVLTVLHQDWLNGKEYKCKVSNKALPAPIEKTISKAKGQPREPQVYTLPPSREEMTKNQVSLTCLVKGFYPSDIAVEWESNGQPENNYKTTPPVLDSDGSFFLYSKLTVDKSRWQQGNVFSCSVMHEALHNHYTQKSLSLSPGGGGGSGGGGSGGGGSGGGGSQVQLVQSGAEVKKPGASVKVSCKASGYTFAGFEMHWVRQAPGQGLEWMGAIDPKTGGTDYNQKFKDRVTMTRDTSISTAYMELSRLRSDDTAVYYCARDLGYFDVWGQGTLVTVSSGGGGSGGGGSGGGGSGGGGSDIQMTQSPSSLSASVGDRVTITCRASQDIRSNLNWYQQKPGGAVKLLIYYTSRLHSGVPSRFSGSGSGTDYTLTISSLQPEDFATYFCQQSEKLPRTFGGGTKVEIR
light: B1 light
notes: Anti-CD40/CD137: Ly253-derived heavy chain fused to Ly1630 scFv (VH-VL); Ly253 light chain
B3: Ly745 (bispecific antibody, human IgG1, kappa)
heavy: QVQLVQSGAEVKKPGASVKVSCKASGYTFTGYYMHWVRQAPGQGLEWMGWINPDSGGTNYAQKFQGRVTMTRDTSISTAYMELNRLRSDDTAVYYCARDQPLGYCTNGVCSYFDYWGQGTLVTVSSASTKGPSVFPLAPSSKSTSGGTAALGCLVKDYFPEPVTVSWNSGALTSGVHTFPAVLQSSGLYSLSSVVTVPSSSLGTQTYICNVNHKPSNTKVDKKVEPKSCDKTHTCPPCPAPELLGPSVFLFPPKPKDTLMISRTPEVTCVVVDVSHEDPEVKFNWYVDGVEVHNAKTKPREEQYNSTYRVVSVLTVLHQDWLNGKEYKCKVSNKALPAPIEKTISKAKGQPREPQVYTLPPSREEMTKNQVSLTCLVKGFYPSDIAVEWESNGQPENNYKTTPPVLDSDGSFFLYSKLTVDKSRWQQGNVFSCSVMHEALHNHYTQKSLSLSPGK
light: DIQMTQSPSSVSASVGDRVTITCRASQGIYSWLAWYQQKPGKAPNLLIYTASTLQSGVPSRFSGSGSGTDFTLTISSLQPEDFATYYCQQANIFPLTFGGGTKVEIKRTVAAPSVFIFPPSDEQLKSGTASVVCLLNNFYPREAKVQWKVDNALQSGNSQESVTEQDSKDSTYSLSSTLTLSKADYEKHKVYACEVTHQGLSSPVTKSFNRGECGGGGSGGGGSGGGGSGGGGSQVQLVQSGAEVKKPGASVKVSCKASGYTFAGFEMHWVRQAPGQGLEWMGAIDPKTGGTDYNQKFKDRVTMTRDTSISTAYMELSRLRSDDTAVYYCARDLGYFDVWGQGTLVTVSSGGGGSGGGGSGGGGSGGGGSDIQMTQSPSSLSASVGDRVTITCRASQDIRSNLNWYQQKPGGAVKLLIYYTSRLHSGVPSRFSGSGSGTDYTLTISSLQPEDFATYFCQQSEKLPRTFGGGTKVEIR
notes: Anti-CD40/CD137: Ly253-derived heavy chain; Ly253 light chain fused to Ly1630 scFv (VH-VL)
B4: Ly744 (bispecific antibody, human IgG1, kappa)
heavy: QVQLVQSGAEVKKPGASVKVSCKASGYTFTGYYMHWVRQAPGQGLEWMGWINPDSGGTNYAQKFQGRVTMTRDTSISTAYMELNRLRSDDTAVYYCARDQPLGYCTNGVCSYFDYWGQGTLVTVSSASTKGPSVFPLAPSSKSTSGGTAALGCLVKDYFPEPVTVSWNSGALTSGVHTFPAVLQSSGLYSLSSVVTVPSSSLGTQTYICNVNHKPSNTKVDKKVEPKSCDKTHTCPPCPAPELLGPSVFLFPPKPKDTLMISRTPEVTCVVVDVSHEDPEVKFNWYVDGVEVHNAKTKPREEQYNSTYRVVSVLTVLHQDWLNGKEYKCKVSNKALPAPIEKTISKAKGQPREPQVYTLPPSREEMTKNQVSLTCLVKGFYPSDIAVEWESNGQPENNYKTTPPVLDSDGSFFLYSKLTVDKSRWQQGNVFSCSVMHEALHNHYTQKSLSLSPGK
light: DIQMTQSPSSVSASVGDRVTITCRASQGIYSWLAWYQQKPGKAPNLLIYTASTLQSGVPSRFSGSGSGTDFTLTISSLQPEDFATYYCQQANIFPLTFGGGTKVEIKRTVAAPSVFIFPPSDEQLKSGTASVVCLLNNFYPREAKVQWKVDNALQSGNSQESVTEQDSKDSTYSLSSTLTLSKADYEKHKVYACEVTHQGLSSPVTKSFNRGECGGGGSGGGGSGGGGSGGGGSDIQMTQSPSSLSASVGDRVTITCRASQDIRSNLNWYQQKPGGAVKLLIYYTSRLHSGVPSRFSGSGSGTDYTLTISSLQPEDFATYFCQQSEKLPRTFGGGTKVEIRGGGGSGGGGSGGGGSGGGGSQVQLVQSGAEVKKPGASVKVSCKASGYTFAGFEMHWVRQAPGQGLEWMGAIDPKTGGTDYNQKFKDRVTMTRDTSISTAYMELSRLRSDDTAVYYCARDLGYFDVWGQGTLVTVSS
notes: Anti-CD40/CD137: Ly253-derived heavy chain; Ly253 light chain fused to Ly1630 scFv (VL-VH)
B5: Ly752 (bispecific antibody, human IgG1, kappa)
heavy: QVQLQESGPGLVKPSETLSLTCTVSGFSLTSYNVHWIRQPPGKGLEWIGVIWSGVRTDYNSVLKSRVTISVDTSKNQFSLKLSSVTAADTAVYYCARGTYDANYHDVMDAWGQGTMVTVSSASTKGPSVFPLAPSSKSTSGGTAALGCLVKDYFPEPVTVSWNSGALTSGVHTFPAVLQSSGLYSLSSVVTVPSSSLGTQTYICNVNHKPSNTKVDKKVEPKSCDKTHTCPPCPAPELLGPSVFLFPPKPKDTLMISRTPEVTCVVVDVSHEDPEVKFNWYVDGVEVHNAKTKPREEQYNSTYRVVSVLTVLHQDWLNGKEYKCKVSNKALPAPIEKTISKAKGQPREPQVYTLPPSREEMTKNQVSLTCLVKGFYPSDIAVEWESNGQPENNYKTTPPVLDSDGSFFLYSKLTVDKSRWQQGNVFSCSVMHEALHNHYTQKSLSLSPGK
light: DTVLTQSPATLSLSPGERATLSCRASKSVRTGMHWYQQKPGQAPRLLVYGASNLESGIPARFSGSGSGTDFTLTISSLEPEDFATYFCHQSWNHFTFGQGTKLEIKRTVAAPSVFIFPPSDEQLKSGTASVVCLLNNFYPREAKVQWKVDNALQSGNSQESVTEQDSKDSTYSLSSTLTLSKADYEKHKVYACEVTHQGLSSPVTKSFNRGECGGGGSGGGGSGGGGSGGGGSDIQMTQSPSSLSASVGDRVTITCRASQDIRSNLNWYQQKPGGAVKLLIYYTSRLHSGVPSRFSGSGSGTDYTLTISSLQPEDFATYFCQQSEKLPRTFGGGTKVEIRGGGGSGGGGSGGGGSGGGGSQVQLVQSGAEVKKPGASVKVSCKASGYTFAGFEMHWVRQAPGQGLEWMGAIDPKTGGTDYNQKFKDRVTMTRDTSISTAYMELSRLRSDDTAVYYCARDLGYFDVWGQGTLVTVSS
notes: Anti-GITR/CD137: TM677-derived heavy chain; TM677 light chain fused to Ly1630 scFv (VL-VH)
B6: Ly753 (bispecific antibody, human IgG1, kappa)
heavy: B5 heavy
light: DTVLTQSPATLSLSPGERATLSCRASKSVRTGMHWYQQKPGQAPRLLVYGASNLESGIPARFSGSGSGTDFTLTISSLEPEDFATYFCHQSWNHFTFGQGTKLEIKRTVAAPSVFIFPPSDEQLKSGTASVVCLLNNFYPREAKVQWKVDNALQSGNSQESVTEQDSKDSTYSLSSTLTLSKADYEKHKVYACEVTHQGLSSPVTKSFNRGECGGGGSGGGGSGGGGSGGGGSQVQLVQSGAEVKKPGASVKVSCKASGYTFAGFEMHWVRQAPGQGLEWMGAIDPKTGGTDYNQKFKDRVTMTRDTSISTAYMELSRLRSDDTAVYYCARDLGYFDVWGQGTLVTVSSGGGGSGGGGSGGGGSGGGGSDIQMTQSPSSLSASVGDRVTITCRASQDIRSNLNWYQQKPGGAVKLLIYYTSRLHSGVPSRFSGSGSGTDYTLTISSLQPEDFATYFCQQSEKLPRTFGGGTKVEIR
notes: Anti-GITR/CD137: TM677-derived heavy chain; TM677 light chain fused to Ly1630 scFv (VH-VL)
B7: Ly754 (bispecific antibody, human IgG1, kappa)
heavy: QVQLVQSGAEVKKPGASVKVSCKASGYTFAGFEMHWVRQAPGQGLEWMGAIDPKTGGTDYNQKFKDRVTMTRDTSISTAYMELSRLRSDDTAVYYCARDLGYFDVWGQGTLVTVSSASTKGPSVFPLAPSSKSTSGGTAALGCLVKDYFPEPVTVSWNSGALTSGVHTFPAVLQSSGLYSLSSVVTVPSSSLGTQTYICNVNHKPSNTKVDKKVEPKSCDKTHTCPPCPAPELLGPSVFLFPPKPKDTLMISRTPEVTCVVVDVSHEDPEVKFNWYVDGVEVHNAKTKPREEQYNSTYRVVSVLTVLHQDWLNGKEYKCKVSNKALPAPIEKTISKAKGQPREPQVYTLPPSREEMTKNQVSLTCLVKGFYPSDIAVEWESNGQPENNYKTTPPVLDSDGSFFLYSKLTVDKSRWQQGNVFSCSVMHEALHNHYTQKSLSLSPGGGGGSGGGGSGGGGSGGGGSEIVLTQSPATLSLSPGERATLSCRASKSVRTGMHWYQQKPGQAPRLLIYGASNLESGIPARFSGSGSGTDFTLTISSLEPEDFAVYYCQQSWNHFTFGQGTKLEIKGGGGSGGGGSGGGGSGGGGSQVQLQESGPGLVKPSETLSLTCTVSGFSLTSYNVHWIRQPPGKGLEWIGVIWSGVRTDYNSVLKPRVTISVDTSKNQFSLKLSSVTAADTAVYYCARGTYDDNYHDVMDAWGQGTLVTVSS
light: DIQMTQSPSSLSASVGDRVTITCRASQDIRSNLNWYQQKPGGAVKLLIYYTSRLHSGVPSRFSGSGSGTDYTLTISSLQPEDFATYFCQQSEKLPRTFGGGTKVEIRRTVAAPSVFIFPPSDEQLKSGTASVVCLLNNFYPREAKVQWKVDNALQSGNSQESVTEQDSKDSTYSLSSTLTLSKADYEKHKVYACEVTHQGLSSPVTKSFNRGEC
notes: Anti-GITR/CD137: Ly1630 heavy chain fused to TM685 scFv (VL-VH); Ly1630 light chain
B8: TM677 (antibody, human IgG1, kappa, V domains shown)
VH: QVQLQESGPGLVKPSETLSLTCTVSGFSLTSYNVHWIRQPPGKGLEWIGVIWSGVRTDYNSVLKSRVTISVDTSKNQFSLKLSSVTAADTAVYYCARGTYDANYHDVMDAWGQGTMVTVSS
VL: DTVLTQSPATLSLSPGERATLSCRASKSVRTGMHWYQQKPGQAPRLLVYGASNLESGIPARFSGSGSGTDFTLTISSLEPEDFATYFCHQSWNHFTFGQGTKLEIKR
notes: Humanized anti-GITR antibody with VL back mutations; also called humanized LYV392 antibody (VH-1/IgG1 mut, VL-2/kappa)
B9: TM685 (antibody, human IgG1, kappa, V domains shown)
VH: B8 VH with S65P, A102D, M116L
VL: B8 VL with D1E, T2I, V48I, T85V, F87Y, H89Q
notes: Humanized anti-GITR antibody; also called humanized LYV396 antibody (LYV396_VH-1/IgG1mut, LYV396_VL-1/kappa)

T1 sequence (P25942 21-277): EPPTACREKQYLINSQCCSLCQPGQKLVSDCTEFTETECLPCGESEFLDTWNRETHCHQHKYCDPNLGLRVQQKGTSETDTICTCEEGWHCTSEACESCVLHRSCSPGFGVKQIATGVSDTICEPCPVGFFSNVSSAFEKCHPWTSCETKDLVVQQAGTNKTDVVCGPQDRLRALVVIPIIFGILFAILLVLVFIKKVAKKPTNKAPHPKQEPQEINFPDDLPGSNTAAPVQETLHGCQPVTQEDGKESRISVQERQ

One assay addresses T1, human CD40 expressed on CHO cells (human, UniProt P25942 21-277).
T1 construct: whole, on cells
The assay can be described thus: FACS on CHO cells expressing human CD40 (MFI). As to the method:
(§1) Anti-CD40/CD137 bi-specific antibodies were analyzed by FACS for their binding properties to human CD40 and/or human CD137 expressed on CHO cells. Briefly, cultured cells were harvested, counted and cell viability was evaluated using the Trypan Blue exclusion method. Viable cells were then adjusted to 2×10⁶ cells per mL in PBS containing 2% BSA. 100 μL of this cell suspension were further aliquoted per well into a V-bottom 96-well plate. […] After incubation for 2 hours at 4° C., cells were centrifuged (3 min, 1000×g), washed with 250 μL/well BSA-containing FACS Stain Buffer, resuspended and incubated for an additional 1 hour at 4° C. with 100 μL/well fluorochrome-conjugated anti-IgG antibody for detection of the bisepecific antibody. Cells were then washed with 250 μL/well BSA-containing FACS Stain Buffer, resuspended in 100 μL/well FACS Stain Buffer, acquired and analyzed using a FACS machine. Binding of the bispecific antibodies to human CD40 or human CD137 expressing CHO cells were evaluated and the mean fluorescence intensity is plotted in histograms or dot plots.
Regarding B1, the binding result is “binds”. Regarding B2, the binding result is reported as “binds”. In the case of B3, the binding result was “binds”.

In the case of B4, the binding result is given as “binds”.

The target in a further assay is T2, human CD137 expressed on cells (human, UniProt Q07011 24-255).
T2 construct: whole, on cells; also called 4-1BB; TNFRSF9
T2 sequence (Q07011 24-255): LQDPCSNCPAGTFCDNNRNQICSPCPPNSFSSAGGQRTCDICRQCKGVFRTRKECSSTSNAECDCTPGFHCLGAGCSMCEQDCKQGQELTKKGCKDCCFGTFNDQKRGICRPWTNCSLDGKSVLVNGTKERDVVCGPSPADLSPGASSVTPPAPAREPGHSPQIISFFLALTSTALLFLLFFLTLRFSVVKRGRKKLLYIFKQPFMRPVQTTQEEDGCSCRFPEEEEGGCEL
The assay is described as follows: FACS on CHO cells expressing human CD137 (MFI). As for the experimental part: as §1, with “Anti-GITR/CD137” for “Anti-CD40/CD137”, “GITR” for “CD40”, “1000× g),” for “1000×g),”
For the molecule B5, the “EC50 (read off the curve)” value was roughly 0.4 µg/mL. Same read-out and setting: the result for B6 reads roughly 0.7 µg/mL. In the case of B7, the “EC50 (read off the curve)” value is roughly 0.2 µg/mL.

The target in a further assay is T2, human CD137 expressed on cells. The assay is described as follows: FACS on CHO cells expressing human CD137 (MFI). This is another data set of the same source. As to the method: as §1
In the case of B1, the “EC50 (read off the curve)” value was roughly 0.07 µg/mL. Same read-out and setting: the result for B2 reads roughly 0.1 µg/mL.

In the case of B3, the “EC50 (read off the curve)” value was roughly 0.2 µg/mL. Still for that read-out and setting: the result for B4 reads roughly 0.1 µg/mL.

The target of the next assay is T3, human GITR expressed on cells (human, UniProt Q9Y5U5 26-241).
T3 construct: whole, on cells; also called TNFRSF18; CD357
T3 sequence (looked up): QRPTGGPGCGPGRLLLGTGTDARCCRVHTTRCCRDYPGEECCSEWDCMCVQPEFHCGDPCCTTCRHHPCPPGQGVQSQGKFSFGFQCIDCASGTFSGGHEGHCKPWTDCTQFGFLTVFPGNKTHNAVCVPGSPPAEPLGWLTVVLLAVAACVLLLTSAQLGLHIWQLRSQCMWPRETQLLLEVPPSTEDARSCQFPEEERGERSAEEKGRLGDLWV
The assay is described as follows: flow cytometry (FACS), MFI, CHO cells expressing human GITR. As for the experimental part: as §1, with “Anti-GITR/CD137” for “Anti-CD40/CD137”, “GITR” for “CD40”, “1000× g),” for “1000×g),”
A general note: Flow cytometry measures light scatter and fluorescence of single cells or particles in a stream.
With B8, the “EC50 (read off the curve)” value is roughly 0.7 µg/mL. The same measure, in the same setting: the same measure for B9: roughly 0.7 µg/mL.

(Values after patent publication US20230406950A1 (LYVGEN BIOPHARMA, published 2023).)
